Data from publication doi:10.1101/2023.06.09.544295 (bioRxiv, 2023).

Experiments:
CMKLR1 = system: CMKLR1; design: method as in 4 sources, one per row (each row's own in cited_ref): ref [28] = [28]; PMID 25437209; doi:10.1371/journal.pone.0112925; 28 Graham K. L. A novel CMKLR1 small molecule antagonist suppresses CNS autoimmune inflammatory disease. PLoS One 9 , e112925 , doi: 10.1371/journal.pone.0112925 ( 2014 ). 25437209 PMC4249827 ||| ref [9] = [9]; PMID 25548799; doi:10.1007/s00011-014-0792-7; 9 Mariani F. & Roncucci L. Chemerin/chemR23 axis in inflammation onset and resolution. Inflamm Res 64 , 85 – 95 , doi: 10.1007/s00011-014-0792-7 ( 2015 ). 25548799 ||| ref [25]–[27] = [25]; PMID 17339491; doi:10.4049/jimmunol.178.6.3912; 25 Arita M. Resolvin E1 selectively interacts with leukotriene B4 receptor BLT1 and ChemR23 to regulate inflammation. J Immunol 178 , 3912 – 3917 , doi: 10.4049/jimmunol.178.6.3912 ( 2007 ). 17339491 || [26]; PMID 19906641; doi:10.1074/jbc.M109.044131; 26 Ohira T. Resolvin E1 receptor activation signals phosphorylation and phagocytosis. J Biol Chem 285 , 3451 – 3461 , doi: 10.1074/jbc.M109.044131 ( 2010 ). 19906641 PMC2823415 || [27]; PMID 25637017; doi:10.4049/jimmunol.1402166; 27 Herova M. , Schmid M. , Gemperle C. & Hersberger M. ChemR23, the receptor for chemerin and resolvin E1, is expressed and functional on M1 but not on M2 macrophages. J Immunol 194 , 2330 – 2337 , do ||| ref [2]–[5] = [2]; PMID 17635925; doi:10.1074/jbc.M700793200; 2 Goralski K. B. Chemerin, a novel adipokine that regulates adipogenesis and adipocyte metabolism. J Biol Chem 282 , 28175 – 28188 , doi: 10.1074/jbc.M700793200 ( 2007 ). 17635925 || [3]; PMID 17767914; doi:10.1016/j.bbrc.2007.08.104; 3 Roh S. G. Chemerin--a new adipokine that modulates adipogenesis via its own receptor. Biochem Biophys Res Commun 362 , 1013 – 1018 , doi: 10.1016/j.bbrc.2007.08.104 ( 2007 ). 17767914 || [4]; PMID 29848608; doi:10.1530/JOE-18-0174; 4 Helfer G. & Wu Q. F. Chemerin: a multifaceted adipokine involved in metabolic disorders. J Endocrinol 238 , R79 – R94 , doi: 10.1530/JOE-18-0174 ( 2018 ). 29848608 PMC6026924 || [5]; PMID 29279348; doi:10.1124/pr.116.013177; 5 Kennedy A. J. & Davenport A. P. International Union of Basic and Clinical Pharmacology CIII: Chemerin Receptors CMKLR1 (Chemerin(1)) and GPR1 (Chemerin(2)) Nomenclature, Pharmacology, and Function.; settings: cited from earlier work
Excerpt: Other isoforms of chemerin due to cleavage at different sites of the C-terminal region have also been detected in vivo with ... || The apparent contradictory functional roles of CMKLR1 in inflammation may be associated with the spatiotemporal regulation of the inflammation processes in cells. It is possible that in the early stage of inflammation the CMKLR1 signaling is mainly pro-inflammatory by promoting chemotaxis and activation of DCs and macrophages; whereas at the late stage of inflammation CMKLR1 activation can induce pro-resolving pathways to dampen inflammation.

[1] = target: T1, wild type human CMKLR1 with the N-terminal 28-amino acid segment of human β2-adrenergic receptor fused to its … (Homo sapiens (Human), UniProt P07550); test: cryo-EM structure of co-purified complex; chemerin9 agonist, Gβ1γ2, scFv16 and apyrase (nucleotide-free); Gαi1 carries dominant negative mutations S47N/G203A/E245A/A326S
T1 chain: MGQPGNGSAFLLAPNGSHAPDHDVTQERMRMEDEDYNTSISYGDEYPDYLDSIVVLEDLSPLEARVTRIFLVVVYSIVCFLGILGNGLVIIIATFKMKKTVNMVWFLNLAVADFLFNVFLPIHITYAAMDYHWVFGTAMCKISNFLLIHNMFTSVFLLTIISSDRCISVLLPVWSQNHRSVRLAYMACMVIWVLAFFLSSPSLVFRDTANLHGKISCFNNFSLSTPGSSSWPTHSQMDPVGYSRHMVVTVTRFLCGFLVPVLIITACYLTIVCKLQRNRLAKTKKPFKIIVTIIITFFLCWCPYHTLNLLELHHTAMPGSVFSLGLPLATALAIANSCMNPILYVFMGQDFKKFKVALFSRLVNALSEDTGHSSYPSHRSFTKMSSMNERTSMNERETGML

[2] = system: primary human macrophages; test: Macrophage differentiation assay, cell surface marker expression by flow cytometry; format: cell-based
Excerpt: HLA-DR is a class II major histocompatibility complex cell surface molecule, a signature cell marker for antigen presenting cells (APCs), while CD86 is a selective ligand for the costimulatory molecule CD28, the activation of which is indispensable for optimal T cell prime and activation; together, HLA-DR and CD86 are signature cell surface markers for the canonical M1-like macrophages. On the other hand, CD206, the mannose receptor (MMR), is a glycosylated surface protein belonging to the scavenger receptor family. Similarly, CD163, another member of the scavenger receptor family, is the receptor for hemoglobin-haptoglobin complex. The upregulation of CD206 and CD163 in macrophages has been associated with the anti-inflammatory and tissue-repair phenotype,[33].
To generate human peripheral blood-derived macrophages, buffy coat was isolated from leukapheresis cones by Ficoll-Paque centrifugation. Monocytes were enriched from human PBMC by CD14 beads positive selection (Miltenyi Biotec) and cultured in IMDM supplanted with 10% human AB serum (omega scientific, Cat# HS-20) for 7 days for them to differentiate to macrophages.
Differentiated macrophages were then replated to low-bind plate at 0.15 million cells per 24-well plate, in 500 µl medium overnight before stimulated with various condition. […] Data were acquired on Cytek Aurora flowcytometry, analysis on Flowjo. MFI quantifications were normalized to M0 condition, and statistically analyzed by 2-way ANOVA, with Dunnett’s multiple comparisons test, all groups were pair-analyzed with M0 group as reference.

[3] = MFI fold-change normalized to M0, chemerin9 10 ng/mL 72 hours, IFNg 10 ng/ml plus LPS 10 ng/ml, IL-10 10 ng/ml, n=4 donors, Fig. 1a

## chemerin15: synthetic peptide corresponding to the 141–155 amino acid segment of chemerin (AGEDPHSFYFPGQFA; UniProt Q99969 141-155, looked up, fragment)
CMKLR1; synthetic peptides, ref [9]
  CMKLR1 agonism / anti-inflammatory effect (in words): stable agonists of CMKLR1 that induce anti-inflammatory effects

## C[N+](C)(C)CCC(=O)c1cccc2ccccc12.[I-] [α-NETA]
CMKLR1; small-molecule antagonist, ref [28]
  potency against CMKLR1 (antagonist): low micromolar potency

## CC[C@@H](O)/C=C/C=C\C[C@@H](O)/C=C/C=C/C=C\[C@@H](O)CCCC(=O)O [RvE1, resolvin E1]
CMKLR1; ref [25]–[27]
  action on CMKLR1 (in words): suggested to act on CMKLR1 to promote the resolution of inflammation

B1: dominant negative form of human Gαi1 (DNGαi1) (protein)
chain: GCTLSAEDKAAVERSKMIDRNLREDGEKAAREVKLLLLGAGESGKNTIVKQMKIIHEAGYSEEECKQYKAVVYSNTIQSIIAIIRAMGRLKIDFGDSARADDARQLFVLAGAAEEGFMTAELAGVIKRLWKDSGVQACFNRSREYQLNDSAAYYLNDLDRIAQPNYIPTQQDVLRTRVKTTGIVETHFTFKDLHFKMFDVGAQRSERKKWIHCFEGVTAIIFCVALSDYDLVLAEDEEMNRMHASMKLFDSICNNKWFTDTSIILFLNKKDLFEEKIKKSPLTICYPEYAGSNTYEEAAAYIQCQFEDLNKRKDTKEIYTHFTCSTDTKNVQFVFDAVTDVIIKNNLKDCGLF
[1]
  binding result: binds

B2: IL-10: reference signal molecule to induce the M2-like macrophages (protein, UniProt P22301 19-178, looked up)
Interleukin-10: SPGQGTQSENSCTHFPGNLPNMLRDLRDAFSRVKTFFQMKDQLDNLLLKESLLEDFKGYLGCQALSEMIQFYLEEVMPQAENQDPDIKAHVNSLGENLKTLRLRLRRCHRFLPCENKSKAVEQVKNAFNKLQEKGIYKAMSEFDIFINYIEAYMTMKIRN
[2]; 2-way ANOVA with Dunnett's multiple comparisons vs M0, n=4
  statistical significance of marker changes: statistically insignificant
[2]; [3]
  CD86 expression (in words): downregulation
  CD163 expression (in words): upregulation
  CD206 expression (in words): upregulation
[2]; overall, chemerin9 10 ng/mL, 72 hours
  macrophage phenotype (in words): consistent with an anti-inflammatory phenotype
